Results on 15 sequences are retold here after a protein production outcome set (Wang et al. 2014).

This series can be described thus: label from the status in PepcDB records.
Regarding “MKLRLRHHETRETLKLELADADTLHDLRRRINPTVPSSVHLSLNRKDELITPSPEDTLRSLGLISGDLIYFSLEAGESSNWKLRDSETVASQSESNQTSVHDSIGFAEVDVVPDQAKSNPNTSVEDPEGDISGMEGPEPMDVEQLDMELAAAGSKRLSEPFFLKNILLEKSGDTSELTTLALSVHAVMLESGFVLLNHGSDKFNFSKELLTVSLRYTLPELIKSKDTNTIESVSVKFQNLGPVVVVYGTVGGSSGRVHMNLDKRRFVPVIDLVMDTSTSDEEGSSSIYREVFMFWRMVKDRLVIPLLIGICDKAGLEPPPCLMRLPTELKLKILELLPGVSIGNMACVCTEMRYLASDNDLWKQKCLEEVNNFVVTEAGDSVNWKARFATFWRQKQLAAASDTFWRQNQLGRRNISTGRSGIRFPRIIGDPPFTWFNGDRMHGSIGIHPGQSARGLGRRTWGQLFTPRCNLGGLN”, the protein production entry is listed as “failed”.

Turning to “MQSSAVFPLSPLIPLLQQRRLSLRHHPITAASSSDLNMSPNKPTPYVLSAIVPIVGGVALASISEVSFNWAGFSSAMASNLTNQSPNNYIFEF”, the protein production result is “failed”. The entry for “RQRSLSTSGESLYHVLGLDKNATSDDIKKSYRKLALKYHPDKNPDNPEAADKFKEINNAHAILTDATKRNIYDKYGSLGLYVAEQFGEENVNTYFV” is “not failed”. For the sequence “MWTDAGGQVHEAASGDVRIASLVPSITELLFDLGLADQLVARTGFCIHPEPAVRAVAKVGGTKDVKLDRLRALAPTHVVVNIDENRRETVDEIRTFVPHVIVTHPCAPEDNLALYRLLGGIFGRRPQAEALVGQLRGELDAIQAQTWPARRVLYAIWQDPWMTVSRATYISRMLALVNWATWPDDADTSDTPAACVDGDCSRPNAPGERYPTFRWSDALVRELDAVLLSTEPYRFTEDHADALERQIGKPVLLVDGEMLSWYGSRAVAGARYLRSLAQGFLEHHHHHH”, the protein production result was “not failed”. In the case of “MAASPKDPLDWAALLQLQMDEAFDFILRSEAGSVAECDLSPPVDIFETPDAFSVEFDLPGTDPADLSLKLCCNMLILEGVKRDDSREGGSYLCLERRFGRFCRTVEIPPTVDVSAVRADYRRGVLTVTFPRLSDRRKVMRDIPIIQGDN”, the protein production result is recorded as “failed”.

Take “MNKGKFALLFTFAACFAVIVFFWLLAVPPENFTADRIVMVLLISPIFAILLAFNLSRFLKQHGYSLRQVHVALEQNIADFIYEFQRLVFIHLMPIAFLGALIFYYGEFTPAIAEFLSLFALIFALSPLLFLGISFFVAMLQVYERVRKKSLLRANFFNFWIWIHLFVILLIIISKVLVQPSELPFQKAYFKALNDGVFNLLIIATMNAIFGVTGRMVAREKFPILLHLSIPLVNSFVAVKILMA”: the protein production entry is recorded as “failed”.

With “MSFSLWLLVLGCILLTLGLASAYLRLLPVSTSFIYLLFGLAIGPAGLHAWRSGLADISGWFEHLSEAALLISLFIGGLKLRLPLRSPAWTAAWLLAGPVLLGCILGLTLGAHFLFGLDWGLALLVAAILAPTDPVLASDIQVNHAGDDDRLRYAVSGEAGLNDGIAFPFVIAALLLIGQGGGLPGEFDRSGLDWLLRDVLWAIPLGLLVGYCLGHGLGRLAIHLRARHTDTSVSANDFLALALIALSYVGADALGGWGFLASFAAGIGLRHAEVATLGRASAPAEAQAAAADVREAGQASGAIEYGADRSEHPKVAAGAVMLDVLSFGNLLERSLEVLLVTLLGAMLYQHWDWRALPLALLLFCVCRPAMVWLLVGRRLMHPAQRRLLGWFGIRGIGSLYYLSYALNQGLPTALAHTASDLVLSLVALSICVHGLSIQPLLMRHARSVSRRDRE”, the protein production result is given as “failed”. Regarding “KKAVINDSNTPLHLLQPAYQGTYGDLTPEQVKKDIDRVFAYIDKETPARVVDKNTGKVITDYTAMGDEAQLERGAFRLASYEWGVTYSALIAAAETTGDKRYTDYVQNRFRFLAEVAPHFKRVYEEKGKTDSQLLQILTPHALDDAGAVCTAMIKLRLKDESLPVDGLIQNYFDFIINKEYRLADGTFARNRPQRNTLWLDDMFMGIPAVAQMSRYDKEAKNKYLAEAVKQFLQFADRMFIPEKGLYRHGWVESSTDHPAFCWARANGWALLTACELLDVLPEDYPQRPKVMDYFRAHVRGVTALQSGEGFWHQLLDCNDSYLETSATAIYVYCLAHAINKGWIDAIAYGPVAQLGWHAVAGKINEEGQVEGTCVGTGMAFDPAFYYYRPVNVYAAHGYGPVLWAGAEMIRLLNTQHPQMNDSAVQYYQEKQKTTAPIFAVDSE”, the protein production result is recorded as “not failed”. For the sequence “MLAKIIMKNFKSFKNETVIDFTRINYKFLENNVSNNGVLKGVAFYGANASGKSNVLWAIRFLLDELFGEEKNPVTFMKCLFSDEPEFSLQYFFVIESREIHYLIDFHTEKGIINEELYLDRKLLLQRMGSTAKSGITEKKVYTDLNNKVLFLRTVYFNTGFSGDDKDNNANNNILRQWFDYMQNSIYVNPFLHRGIAYGKQDVVLNKYLENEGVKEINRFFTKYNFEYTLDYLNERKVKDVTEIVNDDNIKLVFFNRKGVNVPIPYVLESHGNQNLLNILPCFLRVVQNSGMLLVDEFSGGLHNELERLLVNYFFLEHHHHHH”, the protein production entry is reported as “failed”. In the case of “MMKTLSPLKASLFAILASSTVLVTTVSAEPSQECDHPRSEFHKRGDRMGHDGMHKMFEGLELTDTQKADIKKLFAEQRAARSDDKPTKEERLARRAEMHALITAATFDETQAKALIGAQQEKRQAQAIERMKMQNQIYNLLTPEQQAKFKARFEAHTGKEPRSLEHHHHHH”, the protein production result is reported as “failed”. The entry for “MTWLMVAVVVVVAAAGLLRWRRPAWYWLTFGALVATVRILVRYASVMEACGLTVPPSRWRLALARMTNRPAPESRPPRILRLRPTRTGLVLRLKLQPGQDAFDVAAATDRLRHSFGVYGVTSRELRSGVVEVRMTGYDVLQRVQMPAPAEPRPMRIPVALREDGAVHYRDYRAVPHGLTLGATESGKSVYQRNLVAGLAPHHVALVGIDCKQGVELFPLARRFSALADNPDTALDLLEALVGHMKDVYQLIRAEQRISVAVPDAEIAADIWDLREDLRAVPVVVLVDEVAELALFASKDEEKRRDRIITALVRLAQLGRAAGIYLEICGQRFGSELGKGITMLRAQLTGRTAHRVNDETSADMAFGDLSPDAVLAAIQLPTDTPGIAVTGDSTGGWARIRAPHTTKSFPDRQKRLAELWLIEIASDMSRGRYVDPRAARVTFKGYAVKWLETHGIDPASQVVVEQRLRLHAFRLIGSRPLDSFRPEHIRGLVSALENDPAVSGGYARNIYGDVRAVLSAAVDDGLLPRNPCSAKSVRPPAVEQRRVVPWLPEQVQAVRAALPQRYRPMVDMGAGCGLRQGEIVGLAEDAVDFASGIVRVLRQVKLIRGKAVFAPPKCNKERDVPLPPSVADALPAHMDAFKPVEITLPWRKPDGPKVSARLLFTNTASGLVWRSNFNVQEWKPALAAAGLISEAGADGKYESAREHGMHALRHFYASVLLDAGESIKAVSEYLGHADPGLTLRVYAHLMPSSQERTRSAIDQSLRFSG” is “failed”. As for “MNRGVIVTGGGHGIGKQICLDFLEAGDKVCFIDIDEKRSADFAKERPNLFYFHGDVADPLTLKKFVEYAMEKLQRIDVLVNNACRGSKGILSSLLYEEFDYILSVGLKAPYELSRLCRDELIKNKGRIINIASTRAFQSEPDSEAYASAKGGIVALTHALAMSLGPDVLVNCIAPGWINVTEQQEFTQEDCAAIPAGKVGTPKDISNMVLFLCQQDFITGETIIVDGGMSKRMIYHGDWNWFYKIDK”, the protein production entry was “not failed”.

Take “MSVGCARIRRALRHGTSPARQHDAAAASHRRAPVVRIRMDIDAALGEQYVDYRCSRCGMVAQAAVAGYGTGLVVNGVSLSNAQLEAEVGAARAARLAPCPRCGHRGRPALLGVLLVGATVGVVAAMAIGFTVAELFHRSDPEGRLAPVVGTATFVAVVATMTALKLRSVRRRVRFHRVML”: the protein production result is “failed”. As for “VVKVALFVRLEAKPGKEKEVESFLMGGLPIVNEEPATTAWFGIRLGPSTFGIFDAFPNEAGRQAHLSGKVAAALMAKAGELFSEPPSIEKVDILAAKLPG”, the protein production entry is reported as “failed”. Take “MKRNTRLLFVVPAFFAIFAMACACQGGTAGKSFTNSTGSPGEMMLVMDDQYLGSPVGEAIYEAMTEVAPALNQNEPIMAVSRVSEKDFTGFLRYIRNVLQIDINPDIFTKTSLKYGYDQWANGQLVVLINSPATDSLTAYVESNKSAIQNLFIRHELFLFGQLWQKDCSADADQRVQRMFGYHINVPADILSHKEGKDFLWMSNNQMRRRKDFLVYTFPYRGASDLGLDRMVEVRDSVLKANIEGSDAGSYPVTERMLLKHRYVYPGDQKRGEVHGIWRMEGGQMMSGPFVAQAFVDGDRVVVVEGFVYHPNEKKRDLMRQMEAALYSMRPKAEKEFDPSIIRKARWTTLK”: the protein production entry is recorded as “failed”.
